Molecular target: isolated C-terminal domain (CTD, 213-288) of HIV-1 integrase (HIV-1)
Experiment: SEC

isolated C-terminal domain (CTD, 213-288) of HIV-1 integrase (domain or fragment)
stoichiometry N: 2

Reference: PMC3203615
